The nature of this data set: soluble on expression in E. coli; label from the status in PepcDB or PDB records.
For “MGHHHHHHSHMFWRNPLPNIDHELQELLIDRGEDVPSEEEEEEENGFEDRKDDSDDDGGGWITPSNIKQIQQELEQCDVPEDVRVGCLTTDFAMQNVLLQMGLHVLAVNGMLIREARSYILRCHGCFKTTSDMSRVFCSHCGNKTLKKVSVTVSDDGTLHMHFSRNPKVLNPRGLRYSLPTPKGGKYAINPHLTEDQRFPQLRLSQKARQKTNVFAPDYIAGVSPFVENDISSRSATLQVRDSTLGAGRRRLNPNASRKKFVKKR”, the “soluble on expression in E. coli” value was “not soluble”.

On to “MSLKHEQIINEKIIIDTSIFTNPEVYQTFGNDPTDALRSFLEIISKLKGPIFYMPQTIYEELLNFVEIKDIQVDLQMLLQQKSPKRYELTVPAFLLYELIEDVRLRIDKGLRVAETAVRETSPDTEPEAIANLRKKYRMALREGIIDSKEDVDLILLAKEMDGIMMTADTGIVKWADKLGIRYIDPRMLRSILDKLAAASEGHHHHHH”, for which the “soluble on expression in E. coli” value is on record as “soluble”.

With “MSLPASARWQALQEVSILNTGAELPWGGKFSGVAKLIDDAFDAIEKDNEKLKGVLQRISGYAVNEDTLRGLIILFSDTHFTRPTYNGEPVHLGAKDILGHVYEYFLSRFAQAEGKRSGQYFTPKSIVSLIVEMLEPYSGRVYDPAMGSGGFFVQTERFITAHQGNINNVSIYGQEFNPTTWKLAAMNMAIRGIDYDFGKYNADSFTQPQHIDKKMDFIMANPHFNDKEWWNESLADDPRWAYGTPPKGNANFAWLQHMIYHLSPNGKIALLLANGSMSSQTNNEGEIRKAIINADLVECMVALPGQLFTNTKIPACIWFLNRNKKRKGEVLFIDARQIGYMKDRVLRDFTADDIAKIADTLHAWQTSDGYEDQAAFCKSATLEEIKNNDFVLTPGRYVGTAEQEDDGVPFAEKMQNLTALLKEQFAKSAELEAEIKKNLGGLGYEEGHHHHHH”, the “soluble on expression in E. coli” value is given as “not soluble”.

Consider “SMAFKIQLDTLGQLPGLLSIYTQISLLYPVSDSSQYPTIVSTFEQGLKRFSEAVPWVAGQVKAEGISEGNTGTSFIVPFEDVPRVVVKDLRDDPSAPTIEGMRKAGYPMAMFDENIIAPRKTLPIGPGTGPDDPKPVILLQLNFIKGGLILTVNGQHGAMDMVGQDAVIRLLSKACRNDPFTEEEMTAMNLDRKTIVPYLENYTIGPEVDHQIVKADVAGGDAVLTPVSASWAFFTFSPKAMSELKDAATKTLDASTKFVSTDDALSAFIWKSASRVRLERIDGSAPTEFCRAVDARPAMGVSNNYPGLLQNMTYHNSTIGEIANESLGATASRLRSELDPASMRQRTRGLATYLHNNPDKSNVSLTADADPSTSVMLSSWAKVGLWDYDFGLGLGKPETVRRPIFEPVESLMYFMPKKPDGEFCAALSLRDEDMDRLKADKEWTKYAQYVG”, for which the “soluble on expression in E. coli” value is given as “soluble”.

Take “MSEDWPQHFPPRGTVPDAEVYDQFISASTLQWWYVNAHLTVKGEDNSSLAFFASFFRQAGDNCPTAATKYYDACVWALIDLKNKKCYAESALDPESIDQLKLRLDPAVMGRKLEHVEVALLELLNKGRVPRPDRLLKRKAVYTQHPFSIALDDSCVMTIAQEGSARRYTFSLTNAADDVHVEVCLETQQQPVLHGKDGCVNGMYYYYFPSMSVTGYVVVKGLKREVTGLGWYDREVGGSTAEVDREAKYTWSWLSLHASNMSQLSIFYISGNAEDEGKERVIVETRADGSRHYHDDLIMETNKSWSSLVTFMQYPSEFRLCSASMGLDVTIHTAFDAQEIGTVLVGGAGFYEGVVEGSGVCSGDAVTLRGFFEYKKNAAPYRNTSELLKYVGSYVHGALEEIYPLAASDSWLSENVLGRYAMDRGAPADKICETLFRPVRSIIDRGGKSWRSLILVSCCNALSRQYFDCRRYIAVAELLHVGSLIIDDIQDNSVVRRGGKCVHVEYGVATAINAGSACYFMGPRAARIQDLPPEKASRIYQLYFDVLLAGHAGQGLDIYRLDYLMPKVVETGDASTLFDALDAIHTYKTGGAVGALCSMACVLCEAPTVLSEAVERFGLALGLAFQIVDDALNIRGFEENLKEEAEDIKDGKITYPTAIAMGRLEAADRQTLWAILRKPTKEAADIQQAVELIMKVDATSECFLIARHRLQEMWNALDPLLEDSFPKLLMRTFCSFLVERKY”: the “soluble on expression in E. coli” value is given as “soluble”.

With “MGSDKIHHHHHHMAKIGIVICNYNKQNDVIDCIQSVLESKYEDYHIYVVDNASTDESVRLIRECYGSCDRLTLIENSENLGGSGGFNTGLRVAMAEGHMYLMCVDNDALLDENCIGTLSDFLDSHEKAGIAAAKIYHTGQENYVQQYGSFIDYDNYSVDSTYLNHIEDGSMPDVVYSDAVPACALMIRRTVVEQIGVMPEENFLYWDDTEWCVRCREAGYEVASVGAAAASHAMGAKKEDINTFPTYYAWRNWIKFFLDHIDEERLSDMAETFLGSIFEINYTDLYRGEENRSKTVMAALDDALHKVMGKAKEDRIFNLELTYDGLERAIGDKSDIAIMAGEFPLYADALKEKIKVMWPDKRVYIVGLQDIDEAYGTAHFQPDATITICESIFRQDDLSLSTYVMDLDGNVLVDEDDVLMVINYNFSRRSFIFSMKPLFMRLSRQNYGF”, the “soluble on expression in E. coli” value is recorded as “not soluble”.

Take “MKKDIGDHLISKLDLQDIAKVLSDELSGSELNTVLLDIFNKRVQQETPSSLLSKYEGNKLVKPALLEDVLEYKEKELRCYKLIAGRGFEPIELSPVAQFGTNSVIATVDQKKVLTSLRNTEVQADPTNTIALHYASLKKKGELDNKTYNYSNISRVIRTQVFNNPNFTPHFTVLALISCGRDTGSFNFEKEELLKHLTTSYEICKSYGVEKIYYEIIPCKGYDSQSPLIMESISYVRKKNSNLEVLVIAPEHDNNYYHGFRIKQQIVIGGNTIEIADGGLLDWTQQLLTNKKERMMTFGLGIQVLYHLTK”: the “soluble on expression in E. coli” value was “soluble”.

Regarding “YQNYGIMAAIDHINALKDLVKRFPKFADLPKIYGGGSYGGYLSLLIAKIAPWYVDGVIDNSGVCLPFLACILGREMNQGEFYFEGSGYRLYCFVYKYWNRNMNSSYYFGDENYLIRAVLNSNHLQIQSNLNKNTIFVSYHSIQDMGAPVQNKIELYKCYQELGYDATLHLIKDEN”, the “soluble on expression in E. coli” value is “not soluble”.

Turning to “MQNSLLTQHIAQIIAAEISSQPTQARAAIALLDEGASVPFIARYRKEATGGLDDTQLRILETRLTYLRELEERRSTILTSITEQGKLNDLLHAEILAADTKSRLEDLYLPYKPKRRTRAQIAREAGLEPLADSLLADPTLIPETVAANFVDPEKGITDIKTALEGARAILIERWGEDAALIGELRQWLANNGVIHARLIDNKEDTGAKYRDYFNHTELLSKIPSHRLLALFRARSEEILHLDLDPGNDADAGHQYCESMVMQAACVADQGRPADTWLMTACRLTWRAKLHMHLMLDLFNQAREKAEAEAITVFSNNLKDLLLAAPAGPRIVLGIDPGIRTGCKIAIVDTTGKLIATETIYPHEPRREWDKSLHTLKTLCTQHHITLIAIGNGTASRETDKLVSDLIKAHPALELQKIVVSESGASVYSASESAAKEFPDLDVSLRGAVSIARRLQDPLAELVKIDPKAIGVGQYQHDVDQFHLAKALDARVEDCVNAVGVYVNTASAALLSRVSGLSASVAENITRYRDEHGSFKQRQDLLKVPRLGAKTFEQCAGFLRIADGNQPLDASAVHPEAYPVVERIVQTTGKPIKALIGDSHTLRMLKPEQFTDTNFGIPTIRDIIKELEKPGRDPRPEFKAVRFTEGVENIKDLKPGMILEGVVSNVAAFGAFVDIGVHQDGLIHISALADRFVKDPRDIVKAGDIVKVKVLEIDVPRKRIALTCRLHEETPPETPVANRTGNERGRPNPVAKKVKATPTDNALAQAFARARLK”, the “soluble on expression in E. coli” value is “soluble”.

Turning to “MIVNDSVVIHASRDIAADAAGNISVTTADLKVSVMLRVADKPERATAQLVFRALSEVEAFKMRVADEVERLQHSFEQDFETRHRELDQEVARAAEDTIAHRLLERREYVNLRAIERNDDNIILRVTGGVWVGTELYLLFEIQNRDSTPYHLDRVRVVGAGEERAGAVAFEDRTYPEGGSMGSIASGQRGRGIVAVRNARQLAGQPVRLIVSEARERRAVSVGDIRWR”, the “soluble on expression in E. coli” value is “not soluble”.

Turning to “MGSDKIHHHHHHMRIVFVGTPEFAAEILEHLIKNGFNVVGVVTQPDKPRGRGRKVAPTPVKAVAEKHEVPFIQPESINKKEALEFLRSVRPDVIIVASYGKILGEKVLSLPRLGCYNIHPSLLPKYRGASPIQRVLENGEERTGVTIYKMVKELDAGPIALQKEISVDPFETFDQLEKRLIELSKEMLIEFLEKLKTGNIELKEQDHSRATYAPMIKKEDLIVDFSKDAESVKNKIRAYDSRPGARAFLGNVEVKLFGVTAIDSSGDEPGLINYIDREGAWIGTGDGKVKVRYIQFPGKKKMTFWEAKNGRLIIEGMRFERRYES”, the “soluble on expression in E. coli” value is listed as “not soluble”.

The values above are taken from the DeepSol protein solubility set.
